In this experiment the target is SARS-CoV-2 S protein receptor-binding domain (SARS-CoV-2) (UniProt P0DTC2). Briefly: ELISA. For orientation: An ELISA detects its analyte on a solid surface through an enzyme-linked reagent.

In turn, “Native human surfactant protein A (from UniProt Q8IWL2 21-248) (natural protein)” gave a percent decrease of binding in 10 mM EDTA of 59%.

The values above are taken from publication doi:10.1101/2023.04.03.535215.
